Assay results from patent US6638905B2, “Cloning and recombinant production of CFR receptor(s)” (priority 1993, dated 2003).
No end group written: not given here.

Assays:
[1] = biological target: T1, CRF-RB1 expressed in COSM6 cells (Mus musculus, UniProt Q60748); test: CRF-RB1 mediated stimulation of intracellular cAMP in COSM6 cells transfected with pCRF-RB1; type: cell-based; settings: for stimulation of intracellular cAMP accumulation (in words): FIG. 5
T1 construct: The full-length CRF-RB1 receptor cDNA was subcloned into the expression vector pcDNA1; expressed in transfected cells; host or cells: COSM6 cells, DEAE-dextran transient transfection of pCRF-RB1
T1 sequence (Q60748 1-431 isoform Q60748-2): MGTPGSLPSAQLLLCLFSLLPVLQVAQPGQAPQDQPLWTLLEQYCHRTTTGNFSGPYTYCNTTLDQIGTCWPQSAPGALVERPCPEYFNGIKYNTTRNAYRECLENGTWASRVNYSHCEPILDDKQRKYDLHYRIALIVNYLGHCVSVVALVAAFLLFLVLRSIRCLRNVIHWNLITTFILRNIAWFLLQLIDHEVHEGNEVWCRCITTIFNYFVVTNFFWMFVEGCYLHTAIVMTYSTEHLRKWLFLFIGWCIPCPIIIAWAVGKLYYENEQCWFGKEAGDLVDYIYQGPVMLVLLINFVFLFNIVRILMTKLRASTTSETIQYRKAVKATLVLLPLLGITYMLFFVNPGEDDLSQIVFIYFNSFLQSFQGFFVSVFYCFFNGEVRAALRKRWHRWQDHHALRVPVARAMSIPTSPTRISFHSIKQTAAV
Description: Using methods described in Example 4, the ability of CRF-RB1 to stimulate cAMP formation in CRF-RB1-expressing COSM6 cells was investigated. The plasmid pCRF-RB1 was transfected into COSM6 cells. One day later, the cells were trypsinized and replated in 10% FBS, DMEM into 24 or 48 well COSTAR tissue culture wells, and allowed to grow another 24 hours. The medium was changed to 0.1% FBS, DMEM at least two hours before treatments. The cells were preincubated for 30 minutes with 0.1 mM 3-isobutyl-1-methylxanthine and then exposed to various peptides for 30 minutes at 37° C. Intracellular cAMP was measured in duplicate from triplicate wells using an RIA kit (Biomedical Technologies, Stoughton, Mass.).

[2] = biological target: T2, CRF-RB1 (Mus musculus, UniProt Q60748); test: Competitive displacement of 125I-(Nle21,Tyr32)-ovine CRF from membranes of COSM6 cells transfected with pCRF-RB1; type: binding; settings: for displacement of bound radioligand (in words): specificity of binding
T2 construct: The full-length CRF-RB1 receptor cDNA was subcloned into the expression vector pcDNA1; expressed in transfected cells; host or cells: COSM6 cells, DEAE-dextran transient transfection of pCRF-RB1
T2 sequence (Q60748 1-431 isoform Q60748-2): as above
Description: Approximately 10^6 COSM6 cells were transfected with either hctCRFR or rGnRHR (rat gonadotropin releasing hormone receptor) by the DEAE-dextran method and grown in 150 mm tissue culture dishes. Two days after transfection, the cells were washed twice with 1 ml HDB and were detached by incubation for 15 min at room temperature in 0.5 mM EDTA in HDB. After pelleting, the cells were washed twice with HDB, and then homogenized in 5% sucrose (16 ml/150 mm dish). The homogenate was centrifuged at 600×g for 5 minutes, and the resulting supernatant was centrifuged at 40,000×g for 20 minutes. The resulting pellet (containing crude membranes) was resuspended at 1-4 mg/ml in 10% sucrose, and used in a competitive radioreceptor assay to measure binding to the CRF-R as described in Perrin et al., Endoc., 118:1171 (1986).
The reaction was terminated by filtration through GF/C (Whatman) filters, prewetted with 1%BSA, 10 mM HEPES, pH 7.5. The filters were washed 4 times with 1 ml 0.1% BSA, 50 mM Tris, pH 7.5.
Using the methods described in Example 3, a radioreceptor assay was conducted. Approximately […] of pCRF-RB1 plasmid DNA was transfected into COSM6 cells using the DEAE dextran method. […] In order to calculate a Kd the displacement data were analyzed using the Ligand program of Munson and Rodbard (1980), Anal. Biochem., 107:220-239.

[3] = biological target: T3, hCRF-RA1 (CRF receptor encoded by clone hctCRFR) (Homo sapiens, UniProt P34998); test: Competitive radioreceptor assay: displacement of 125I-(Nle21,Tyr32)-ovine CRF from membranes of COSM6 cells transfected with hctCRFR; type: binding; settings: receptor of SEQ ID NO:2
T3 construct: expressed in transfected cells; host or cells: COSM6 cells, DEAE-dextran transient transfection of clone hctCRFR in pcDNA1
T3 sequence (P34998 24-415): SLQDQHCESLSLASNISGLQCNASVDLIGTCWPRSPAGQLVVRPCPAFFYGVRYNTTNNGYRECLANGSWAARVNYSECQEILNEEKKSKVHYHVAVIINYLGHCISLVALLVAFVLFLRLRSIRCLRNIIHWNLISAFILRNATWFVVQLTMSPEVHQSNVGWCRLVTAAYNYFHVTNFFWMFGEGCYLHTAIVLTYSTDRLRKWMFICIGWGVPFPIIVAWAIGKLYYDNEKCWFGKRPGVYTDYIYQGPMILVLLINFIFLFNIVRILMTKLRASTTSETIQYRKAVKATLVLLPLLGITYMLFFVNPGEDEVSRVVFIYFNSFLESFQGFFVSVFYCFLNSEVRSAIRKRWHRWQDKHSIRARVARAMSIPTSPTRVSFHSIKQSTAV
Description: Approximately 10^6 COSM6 cells were transfected with either […] or […] (rat gonadotropin releasing hormone receptor) by the DEAE-dextran method and grown in 150 mm tissue culture dishes. Two days after transfection, the cells were washed twice with 1 ml HDB and were detached by incubation for 15 min at room temperature in 0.5 mM EDTA in HDB. After pelleting, the cells were washed twice with HDB, and then homogenized in 5% sucrose (16 ml/150 mm dish). […] The reaction was terminated by filtration through GF/C (Whatman) filters, prewetted with 1%BSA, 10 mM HEPES, pH 7.5. The filters were washed 4 times with 1 ml 0.1% BSA, 50 mM Tris, pH 7.5. Filter-bound radioactivity, indicating the presence of CRF-R:^125 I-([…],Tyr^32)-ovine CRF complex, was determined by g-scintillation counting.

[4] = biological target: T4, CRF-RA1 (hctCRFR) expressed in COSM6 cells (Homo sapiens, UniProt P34998); test: CRF-R mediated stimulation of intracellular cAMP in COSM6 cells transfected with hctCRFR; type: cell-based; settings: receptor transfected COSM6 cells
T4 construct: expressed in transfected cells; host or cells: COSM6 cells, DEAE-dextran transient transfection of clone hctCRFR in pcDNA1
T4 sequence (P34998 24-415): T3 sequence (P34998 24-415)
Description: To determine the possible linkage of CRF-R to multiple signaling pathways, the ability of CRF-R to stimulate cAMP formation in CRF-R-expressing COSM6 cells was investigated. To ensure that changes in cAMP levels were not influenced by alterations in cAMP phosphodiesterase, the phosphodiesterase inhibitor 3-isobutyl-1-methylxanthine (IBMX) was added to the medium. COSM6 cells were trypsinized 24 hrs following transfection with either ctCRFR or rGnRHR in 150 mm dishes and were replated in 24-well plates (Costar) and allowed to express the receptors for another 24 hrs in 10% FCS, DMEM.
On the day of the stimulation, the medium was changed to 0.1 w FCS, DMEM at least 2 hrs before a 30 minute preincubation with 0.1 mM IBMX or medium. Test ligands (i.e., r/h CRF, sauvagine, salmon calcitonin, Vasoactive intestinal peptide (VIP), growth hormone releasing factor (GRF) were added in 0.1% BSA, 0.1% FCS, DMEM, and stimulation was carried out for 30 minutes at 37° C., 7.5% CO2. The medium was removed and the cells were extracted overnight with 1 ml ice-cold 95% EtOH-0.1M HCl at −20° C. Cyclic AMP (cAMP) levels were determined in duplicate from triplicate wells by RIA kit (Biomedical Technologies, Stoughton, Mass.) following the manufacturer's protocol.

Row | Compound | stimulation of intracellular cAMP accumulation (in words) [1] | affinity of the CRF-Rs for the ligand (in words) [2] | affinity of the receptor for the ligand (in words) [3] | effect on cyclic AMP levels / activity of non-related peptides (in words) [4] | other results
1 | CC[C@H](C)[C@H](NC(=O)[C@@H](NC(=O)[C@H](CC(=O)O)NC(=O)[C@H](CC(C)C)NC(=O)[C@H](CC(C)C)NC(=O)[C@H](CC(C)C)NC(=O)[C@H](CCCNC(=N)N)NC(=O)[C@H](CC(N)=O)NC(=O)[C@H](CC(N)=O)NC(=O)[C@H](C)NC(=O)[C@H](C)NC(=O)[C@H](CCC(N)=O)NC(=O)[C@H](CCC(N)=O)NC(=O)[C@H](CCCCN)NC(=O)[C@H](CCC(=O)O)NC(=O)[C@H](CCCCN)NC(=O)[C@H](CCC(=O)O)NC(=O)[C@H](CCC(N)=O)NC(=O)[C@H](CCCCN)NC(=O)[C@H](CCC(=O)O)NC(=O)[C@@H](NC(=O)[C@H](CCC(=O)O)NC(=O)[C@@H](NC(=O)[C@H](CCSC)NC(=O)[C@H](CCCCN)NC(=O)[C@H](CCCNC(=N)N)NC(=O)[C@H](CC(C)C)NC(=O)[C@H](CC(C)C)NC(=O)[C@H](CCC(=O)O)NC(=O)[C@H](CC(C)C)NC(=O)[C@H](CO)NC(=O)[C@H](CC(C)C)NC(=O)[C@H](CC(=O)O)NC(=O)[C@@H](NC(=O)[C@H](CO)NC(=O)[C@@H](NC(=O)[C@@H]1CCCN1C(=O)[C@@H]1CCCN1C(=O)CNC(=O)[C@@H]1CCC(=O)N1)[C@@H](C)CC)[C@@H](C)CC)[C@@H](C)CC)[C@@H](C)CC)[C@@H](C)O)C(N)=O [sauvagine] | equipotent to CRF | high affinity | – | – | –
2 | NDDPPISIDLTFHLLRNMIEMARIENEREQAGLNRKYLDEV-NH2 (C-terminus assumed) [urotensin] | equipotent to CRF | high affinity | high affinity | – | Ki ([2]; on CRF-RB): 0.7 ± 0.3 nM
3 | SQEPPISLDLTFHALREVLEMTKADQLAQQAHSNRKLLDIA-NH2 (C-terminus assumed) [[Ala^14]-ovine CRF] | – | – | very low affinity | – | –
4 | VIP: vasoactive intestinal peptide, non-related peptide | do not stimulate | – | – | inactive | displacement of bound radioligand (in words) [2]: do not displace

Now from value to compound, other results behind:

Row | stimulation of intracellular cAMP accumulation (in words) [1] | affinity of the CRF-Rs for the ligand (in words) [2] | affinity of the receptor for the ligand (in words) [3] | effect on cyclic AMP levels / activity of non-related peptides (in words) [4] | Compound | other results
5 | – | high affinity | high affinity | – | (DPhe^12,Nle^21,38)hCRF(12-41) | inhibition of the CRF signal by antagonist (in words) ([1]; 1 mM antagonist): inhibited
6 | do not stimulate | – | – | inactive | GRF: growth hormone releasing factor, non-related peptide (YADAIFTNSYRKVLGQLSARKLLQDIMSRQQGESNQERGA) | displacement of bound radioligand (in words) [2]: do not displace
7 | – | – | – | inactive | gonadotropin releasing hormone: non-related peptide | –
8 | – | – | high affinity | – | ovine CRF | –
9 | – | – | – | inactive | salmon calcitonin: non-related peptide | –
